Measurements as given in patent US20250320468A1, “New Microbial Diamine Oxidase Derived from Yarrowia Lipolytica for the Degradation of Biogenic Amines” (UNIVERSITÄT HOHENHEIM, priority 2021, published 2025).
Several values for one entry are separate records, joined by “and”; a condition that tells them apart may be missing. Identical values can stand only once.

Key:
[1] = pH-stability of DAO-1 in buffer systems at 37° C; assay type: physicochemical
Experimental: Consequently, DAO-1 was incubated for 5 h at 37° C. and stirred at 400 rpm in the following buffer systems: 20 mM MES (pH 5.5), 20 mM sodium phosphate buffer (pH 6.2, 7.0, 7.2, 7.8, 8.0), 20 mM PIPES (pH 7.0, 7.2, 7.5) and 20 mM Tris-HCl (pH 6.8, 7.5, 8.2). Afterwards, the residual enzyme activity of DAO-1 was determined under standard assay conditions and compared to the DAO-1 activity applied initially.

[2] = DAO activity determination, colorimetric DA-67 enzyme assay (specific / total DAO activity); assay type: biochemical
Experimental: The DAO activity was determined using the colorimetric DA-67 enzyme assay, as known in the art.

[3] = Substrate selectivity of DAO-1 (DA-67 assay), histamine; assay type: biochemical
Experimental: (§1) The amino acids L-tryptophan, L-lysine, L-histidine, and L-arginine were also tested.

[4] = Histamine bioconversion with DAO-1 in PIPES buffer with simulated food matrix (RP-HPLC); assay type: biochemical; details: for histamine concentration after bioconversion: 0.1 nkat/mL DAO-1, 5 h
Experimental: An amount of 5 g/L BSA and 25 g/L sucrose were added to the approach to simulate a food matrix. Additionally, catalase was added (30 nkat/mL) to remove the hydrogen peroxide. The experiment was started by the addition of 0.1 nkat/mL DAO-1 activity.

[5] = Substrate selectivity of DAO-1 (DA-67 assay), tyramine; assay type: biochemical; details: 100% = 10 mM histamine
Experimental: as §1

[6] = Stability of DAO-1 in simulated intestinal fluid (SIF) with and without food matrices; assay type: in vitro ADME
Experimental: The stability of DAO-1 was tested in a simulated intestinal fluid (SIF) with and without the addition of simulated food matrices. Therefore, pancreatin-containing SIF was prepared as described in the United States Pharmacopeia (USP42). Different food-matrix stock solutions (4× concentrated) were prepared as follows: 200 g/L bovine serum albumin (BSA) and 100 g/L sucrose (=food-matrix 1), 100 g/L BSA, 100 g/L whey protein isolate (WPI) and 200 g/L sucrose (=food-matrix 2) and BSA, WPI, sodium-caseinate each at 66.68 g/L and 200 g/L sucrose (=food-matrix 3). The pH of each stock solution was adjusted to 6.8 with 1 M NaOH. The freshly prepared 2× concentrated SIF, the food-matrix stock solutions as well as DAO-1 (desalted against H2Odd using PD MidiTrap G-25 columns; GE Healthcare, Chicago, USA) were individually incubated for 5 min in a thermoshaker at 37° C. Subsequently, 500 μL of 2× concentrated SIF, 250 μL of DAO-1 and 250 μL of the food-matrix stock solutions were combined and incubated at 37° C., 500 rpm in a thermoshaker. In order to test the stability of DAO-1 without the presence of stabilizing compounds, H2Odd was added instead of the food-matrix stock solution. Immediately after combining the solutions, a sample of 100 μL was taken and used for the DAO-1 activity determination using the DA-67 assay.

[7] = Substrate selectivity of DAO-1 (DA-67 assay), spermidine; assay type: biochemical; details: 100% = 10 mM histamine
Experimental: as §1

[8] = Temperature and pH profile of DAO-1 (DA-67 assay); assay type: biochemical
Experimental: The influence of temperature on the enzyme activity of DAO-1 was tested under standard assay conditions, whereby the incubation temperature was varied between 2° and 47° C. The pH-dependency of the DAO-1 activity was investigated under standard assay conditions at 37° C., whereby different buffer systems (50 mM sodium phosphate buffer, pH 6.2-7.8; 50 mM PIPES, pH 7-7.5; 50 mM Tris-HCl, pH 7.2-8.5) were used. The respective buffer system was calibrated with hydrogen peroxide (0.5 to 10 nmol/mL). Analytically pure histamine was used as a substrate for the temperature and pH profiles.

[9] = Substrate selectivity of DAO-1 (DA-67 assay), tryptamine; assay type: biochemical; details: substrate tryptamine 1 mM; 100% = 10 mM histamine
Experimental: as §1

[10] = Substrate selectivity of DAO-1 (DA-67 assay), putrescine; assay type: biochemical; details: 100% = 10 mM histamine
Experimental: as §1

[11] = Michaelis-Menten kinetics of DAO-1 in PIPES buffer; assay type: biochemical; details: read-out: Km for histamine; PIPES buffer 25 mM pH 7.2, 37° C
Description: Kinetic investigations were done within the initial reaction velocity.

[12] = Substrate selectivity of DAO-1 (DA-67 assay), amino acids; assay type: biochemical; details: L-tryptophan, L-lysine, L-histidine, L-arginine at 1, 10 and 50 mM
Experimental: as §1

[13] = Substrate selectivity of DAO-1 (DA-67 assay), agmatine; assay type: biochemical; details: 100% = 10 mM histamine
Experimental: as §1

[14] = Substrate selectivity of DAO-1 (DA-67 assay), cadaverine; assay type: biochemical; details: 100% = 10 mM histamine
Experimental: as §1

[15] = substrate: NCCc1c[nH]cn1; assay: purified protein, by the assay type
[16] = bioreactor cultivation, crude extract
[17] = other: apparent, histamine 0.5-50 mM, PIPES buffer (25 mM; pH 7.2), 37° C., pH 7.2

B1: Yarrowia lipolytica PO1f diamine oxidase-1 (DAO-1), wild type, SEQ ID NO: 1 (Yarrowia lipolytica CLIB122) (protein)
chain: MTPHPFDQLSVQEMESVVRVVKSNHSGKSLHLKSIGTEEPPKALMAPFLAAKRAGKNPVPPPRIAHVIYYVLEDKLVNQCWVDVPSAKVVKSEVLKKGIHPPIDPWEANEAFEAAFDHPLVKDAIKKCGVEHLIDNLTIDGWMYGCDSEIDMPRYLQMLVYCRDPKTNHQDSNMYAFPVPFVPVYDVLEKKLVRVDYCATGGDDDDAAVEGVGNYDTRPEGKNCIEHCVTNDYLPELQDKMRTDLKPYNVLQPEGPSYHIDSDGYINWQKWHFKVGFTPREGLVIHDVHYDGRSTFYRLSMSEMAVPYADPRPPLHRKMAFDFGDCGGGKCANELTLGCDCLGTIRYFDGNVCDPEGNVFTRKNVICMHEQDDGIGWKHTNYRTDVVAITRRRILVLQTILTVGNYEYIFAWHFDQSAGIQLEIRATGIVSTQLIDAGKKSKFGTIVSPGVMAASHQHIFNVRMDPAIDGHQNTVVVNDTVALPWDAKNPHGIAFENTKTPIEKSCYLDSDIQKNRYLKICNENKINPISGNPVGYKIGGLATAMLYAQPGSVSRNRAAFATHHYWVTKYKDQELFAGGVWTNQSANEVGGVQDAVARNENVRNDDVVLWHSFGLTHHPRVEDFPVMPCEIMKIHLSPNDFFTGNPSVDVPKSNQTFNRSVEVKDCRSCKI
In the case of B1, the “residual DAO-1 activity” value ([1]; 37° C, 5 h, pH range from 6.2 to 7.5) is reported as “more than 60%”, the “residual DAO-1 activity” value ([1]; 37° C, 24 h) is reported as 53.7±1.2% and the “residual DAO-1 activity” value ([1]; PIPES buffer (20 mM) pH 7.0, 37° C, 5 h) is reported as 89.5±0.8%. The “increase of specific DAO-1 activity compared to the recent work” value ([2]; 5 L scale purified preparation) was 3 fold, the “specific DAO-1 activity” value ([2]; 5 L scale, stirred media mill, ammonium sulfate precipitation and HIC) was 15 μkat/gProtein and the “specific DAO-1 activity of crude extract relative to partially purified porcine DAO” value ([2]; 1301 vs 81 nkat/gProtein) was “around 16 times”. The “specific DAO-1 activity” value ([2]; DAO-1 produced in Komagataella phaffii, fed-batch bioreactor) was 2500 nkat/gProtein, the “specific DAO-1 activity relative to specific DAO activity obtained from porcine kidney” value ([2]; K. phaffii DAO-1 after assumed 7.2-fold purification) was “more than 200 fold” and the “specific DAO-1 activity” value ([2]; after (NH4)2SO4 precipitation and hydrophobic interaction chromatography) was 4738±31 nkat/gProtein. The “specific DAO-1 activity” value ([2]; after cell disruption (high-pressure homogenizer) of 10 g wet yeast biomass, before purification) was 660±28 nkat/gProtein, the “increase in specific DAO activity compared with extracted and purified DAO from porcine kidney” value ([2]; after chromatographic purification) was ~60 fold and the “increase in specific DAO activity compared with DAO extraction from porcine kidney” value [2, 16] was 145 fold. For the same molecule, the “increase in specific DAO activity compared with native DAO-1 production in Y. lipolytica PO1f” value [2, 16] was 93 fold, the “specific DAO-1 activity” value ([2]; crude extract, bioreactor cultivation of Y. lipolytica PO1f_axp_dao-1, final (96 h)) was 1301±54.2 nkat/gProtein and the “DAO-1 activity [%]” value ([3]; substrate histamine 1 mM, 100% = 10 mM histamine) was 45.1 ± 0.7%. For the same molecule, the “DAO-1 activity [%]” value ([3]; substrate histamine 10 mM, reference 100%) was 100 ± 1.5%, the “DAO-1 activity [%]” value ([3]; substrate histamine 50 mM, 100% = 10 mM histamine) was 74.4 ± 1.1% and the “residual activity of DAO-1 after bioconversion” value ([4]; after 5 h bioconversion at 37° C, determined by RP-HPLC) was 57.4±1.3%. The “histamine concentration at start of stagnation” value ([4]; around 4 h) was 43.5±0.76 mg/L and 0.39±0.01 mM, the “histamine concentration after bioconversion” value ([4]; initial 1.35 mM, 37° C) was 0.34 ± 0.01 mM and the “histamine concentration after bioconversion” value ([4]; initial 150 mg/L, 37° C) was 37.4±0.65 mg/L and 37.4±+0.65 mg/L. For the same molecule, the “remaining histamine relative to initial (100%)” value ([4]; initial 150 mg/L, 5 hours, 37° C) was 25±1.7%, the “DAO-1 activity [%]” value ([5]; substrate tyramine 1 mM) was 303.9 ± 4.4% and the “DAO-1 activity [%]” value ([5]; substrate tyramine 10 mM) was 246.8 ± 3.6%. For the same molecule, the “DAO-1 activity [%]” value ([5]; substrate tyramine 50 mM) was 66.4 ± 1.0%, the half-life period ([6]; food-matrix SIF 1 (50 g/L BSA, 25 g/L sucrose), 37° C) was “around 15 min” and the half-life period ([6]; food-matrix SIF 2 (25 g/L BSA, 25 g/L WPI, 50 g/L sucrose), 37° C) was “around 30 min”. The “initially applied DAO-1 activity available over 90 min” value ([6]; food-matrix SIF 3, 37° C) was “around 43%”, the “residual DAO-1 activity” value ([6]; food-matrix SIF 3, 90 min, 37° C) was 8±0.1% and the half-life period ([6]; pure SIF (pancreatin), 37° C) was “less than 5 min”. For the same molecule, the “DAO-1 activity [%]” value ([7]; substrate spermidine 1 mM) was 2.1 ± 1.6%, the “DAO-1 activity [%]” value ([7]; substrate spermidine 10 mM) was 3.8 ± 0.9% and the “DAO-1 activity [%]” value ([7]; substrate spermidine 50 mM) was 2.1 ± 1.3%. For the same molecule, the “relative DAO-1 activity” value ([8]; 42° C, relative to maximum at 40° C) was 76±1%, the “relative DAO-1 activity” value ([8]; 45° C, relative to maximum at 40° C) was 31.7±1% and the “DAO-1 activity compared to the maximal activity in Tris-HCl at pH 7.2” value ([8]; PIPES buffer) was 92.2±3.9%. For the same molecule, the “temperature of maximal DAO-1 activity” value ([8]; PIPES buffer 25 mM pH 7.2, histamine substrate) was 40 °C, the “pH of maximal DAO activity” value ([8]; Tris-HCl buffer (50 mM), 37° C, histamine substrate) was 7.2 and the “Maximal DAO-1 activity (100%)” value ([8]; pH/buffer profile at 37° C (FIG. 8)) was 1.84±0.03 nkat/mL. The “Maximal DAO-1 activity (100%)” value ([8]; temperature profile, PIPES 25 mM pH 7.2 (FIG. 7)) was 1.88±0.01 nkat/mL, the “relative DAO-1 activity” value ([8]; temperature range between 3° and 42° C) was “greater than 50%” and the “DAO-1 activity [%]” value [9] was 166.1 ± 0.8%. For the same molecule, the “DAO-1 activity [%]” value ([10]; substrate putrescine 1 mM) was 29.8 ± 0.4%, the “DAO-1 activity [%]” value ([10]; substrate putrescine 10 mM) was 92.9 ± 1.4% and the “DAO-1 activity [%]” value ([10]; substrate putrescine 50 mM) was 77.9 ± 1.1%. The Km [11] was 2300 µM, the “DAO-1 activity towards amino acids” value [12] was “did not show any activity” and the “DAO-1 activity [%]” value ([13]; substrate agmatine 1 mM) was 31 ± 1.1%. The “DAO-1 activity [%]” value ([13]; substrate agmatine 10 mM) was 30.6 ± 2.7%, the “DAO-1 activity [%]” value ([13]; substrate agmatine 50 mM) was 7.4 ± 2.3% and the “DAO-1 activity [%]” value ([14]; substrate cadaverine 1 mM) was 29.6 ± 0.4%. For the same molecule, the “DAO-1 activity [%]” value ([14]; substrate cadaverine 10 mM) was 87.3 ± 1.3%, the “DAO-1 activity [%]” value ([14]; substrate cadaverine 50 mM) was 64.5 ± 1.0% and the Km [15, 17] was 2300 ± 200 µM. The Vmax [15, 17] was 9.09±0.37 nkat/mg and the Km ([15]; other: hydrolyzed food-matrix SIF 3 (pancreatin, 90 min at 37° C.), pH 6.8, histamine 1.56-50 mM, pH 6.8) was 4200 ± 500 µM.
